Assay results: publication PMC6039492, “Oligomerization of a G protein-coupled receptor in neurons controlled by its structural dynamics” (Scientific Reports, 2018)
Where “and” joins values, the source holds several entries; their conditions need not be identical. Equal values may be shown once.

Key:
[1] = biological target: the molecule itself; assay: two-photon scanning number and brightness (sN&B) fluctuation microscopy; live cultured rat hippocampal neurons, SNAP-tag labelled with Alexa488, with antagonist (400 nM LY341495) during labelling and imaging; numbers for 90-600 subunits/Veff
[2] = biological target: the molecule itself; assay: two-photon scanning number and brightness (sN&B) fluctuation microscopy; live cultured rat hippocampal neurons, SNAP-tag labelled with Alexa488, incubated with 150 μM CuP, bound to antagonist (400 nM LY341495); 90-600 subunits/Veff; apparent stoichiometry (lower with CuP)
[3] = biological target: the molecule itself; assay: two-photon scanning number and brightness (sN&B) fluctuation microscopy; live cultured rat hippocampal neurons, SNAP-tag labelled with Alexa488, incubated with 150 μM CuP for the last 10 min of labelling, imaged in the absence of ligand; 90-600 subunits/Veff; apparent stoichiometry (lower with CuP)
[4] = biological target: the molecule itself; assay: two-photon scanning number and brightness (sN&B) fluctuation microscopy; live cultured rat hippocampal neurons, SNAP-tag labelled with Alexa488, with agonist and PAM (10 nM LY379268 + 3 μM BINA) during labelling and imaging; numbers for 90-600 subunits/Veff
[5] = biological target: the molecule itself; assay: two-photon scanning number and brightness (sN&B) fluctuation microscopy; live cultured rat hippocampal neurons, cell-surface SNAP-tagged receptor labelled with Alexa488, imaging buffer pH 7.3, no ligand (basal); numbers for expression of 90-600 subunits/Veff; brightness normalised to monomeric Alexa488

B1: metabotropic glutamate receptor type 2 (mGlu2), wild type, with a SNAP-tag fused to the extracellular N-terminus (HA-ST-mGlu2) (receptor, rat, UniProt P31421 19-872, looked up)
chain: EGPAKKVLTLEGDLVLGGLFPVHQKGGPAEECGPVNEHRGIQRLEAMLFALDRINRDPHLLPGVRLGAHILDSCSKDTHALEQALDFVRASLSRGADGSRHICPDGSYATHSDAPTAVTGVIGGSYSDVSIQVANLLRLFQIPQISYASTSAKLSDKSRYDYFARTVPPDFFQAKAMAEILRFFNWTYVSTVASEGDYGETGIEAFELEARARNICVATSEKVGRAMSRAAFEGVVRALLQKPSARVAVLFTRSEDARELLAATQRLNASFTWVASDGWGALESVVAGSERAAEGAITIELASYPISDFASYFQSLDPWNNSRNPWFREFWEERFHCSFRQRDCAAHSLRAVPFEQESKIMFVVNAVYAMAHALHNMHRALCPNTTHLCDAMRPVNGRRLYKDFVLNVKFDAPFRPADTDDEVRFDRFGDGIGRYNIFTYLRAGSGRYRYQKVGYWAEGLTLDTSFIPWASPSAGPLPASRCSEPCLQNEVKSVQPGEVCCWLCIPCQPYEYRLDEFTCADCGLGYWPNASLTGCFELPQEYIRWGDAWAVGPVTIACLGALATLFVLGVFVRHNATPVVKASGRELCYILLGGVFLCYCMTFVFIAKPSTAVCTLRRLGLGTAFSVCYSALLTKTNRIARIFGGAREGAQRPRFISPASQVAICLALISGQLLIVAAWLVVEAPGTGKETAPERREVVTLRCNHRDASMLGSLAYNVLLIALCTLYAFKTRKCPENFNEAKFIGFTMYTTCIIWLAFLPIFYVTSSDYRVQTTTMCVSVSLSGSVVLGCLFAPKLHIILFQPQKNVVSHRAPTSRFGSAAPRASANLGQGSGSQFVPTVCNGREVVDSTTSSL
modifications: Alexa488 (BG-Alexa488) covalently on the SNAP-tag
notes: metabotropic glutamate receptor 2 (mGlu2), rat, wild type; HA-tag and SNAP-tag inserted just after the signal peptide; pRK5 plasmid, CMV promoter exchanged for the synapsin-1 promoter; also called mGlu2 receptor; wild type receptor; source: cultured rat hippocampal neurons, transfected (Lipofectamine 2000), on live cells; not shown: SNAP-tag, N-terminal, kept
B1 was tested, and the “stoichiometry N” value [1] was 3.7 subunits/complex, the “stoichiometry N” value [2] was 3 subunits/complex and the “stoichiometry N” value [3] was 1.7 subunits/complex. The “stoichiometry N” value [4] was 4 subunits/complex and the “stoichiometry N” value [5] was 2.2 subunits per complex and 1.66 subunits/complex.
